According to the DeepSol protein solubility set:

assay: soluble on expression in E. coli; label from the status in PepcDB or PDB records

Sequence | soluble on expression in E. coli
MGFNVKTPLLATDVIIRLWDGENFKGIVLIERKYPPVGLALPGGFVEVGERVEEAAAREMREETGLEVRLHKLMGVYSDPERDPRAHVVSVVWIGDAQGEPKAGSDAKKVKVYRLEEIPLDKLVFDHKKIILDFLKGNY | soluble
MGFPKEGEKVQIHSYKHNGSIHRMWEETTILKGTQSLVIGANDRTVVTESDGRTWITREPAICYFHANYWFNVIGMLREDGVYYYCNLSSPFAYDPEALKYIDYDLDIKVYPDMTYTLLDEDEYEKHSEIMQYPPVIDTILKRNVAHLTQWIHQRKGPFAPDFVDMWYERYLMYRN | not soluble
MGGLLFSSLQHCQQGFVISNELRQQQSELTSTWDLMLQTRINLSRSAARMMMDASNQQSSAKTDLLQNAKTTLAQAAAHYANFKNMTPLPAMAEASANVDEKYQRYQAALAELIQFLDNGNMDAYFAQPTQGMQNALGEALGNYARVSENLYRQTFDQSAHDYR | soluble
MGGSHHHHHHGMASALETNYLKRCFGNCLAQALAEVAKVRPSDPIEYLAHWLYHYRKTAKAKEENREKKIHLQEEYDSSLKEMEMTEMLKQEEYQIQQNCEKCHKELTSETVSTKKTIFMQEDTNPLEKEALKQEFLPGTSSLIPGMPQQVPPSESAGQIDQNFKMPQEINYKEAFQHEVAHEMPPGSKSPF | not soluble
MGGSHHHHHHGMASALKAHMVRQHSRRQDLLPQLEAPSSLTPSSELSSPGQSELTNMDLAALFSDTPANASGSAGGSDEALNSGILTIDVTSVSSSLGGNLPANNSSLGPMEPLVLVAHSDIPPSLDSPLVLGTAATVLQQGSFSVDDVQTVSAGALGCLVALPMKNLSDDPLALTSNSNLAAHITTPTSSSTPRENASVPELLAPIKVEPDSPSRPGAVGQQEGSHGLPQSTLPSPAEQHGAQDTELSAGTGNFYLESGGSARTDYRAIQLAKEKKQRGAGSNAGASQSTQRKIKEGKMSPPHFHASQNSWLCGSLVVPSGGRPGPAPAAGVQCGAQGVQVQLVQDDPSGEGVLPSARGPATFLPFLTVDLPVYVLQEVLPSSGGPAGPEATQFPGSTINLQDLQ | not soluble
MGHHHHHHGGHMSLLRFLEVVSEHIKNLRNHIDLETVGEMIKLIDSARSIFVIGAGRSGYIAKAFAMRLMHLGYTVYVVGETVTPRITDQDVLVGISGSGETTSVVNISKKAKDIGSKLVAVTGKRDSSLAKMADVVMVVKGKMKQERDEILSQLAPLGTMFELTAMIFLDALVAEIMMQKHLTEKDLEARHAVLEEGGS | soluble
MGHHHHHHGGHMSLSPVLTQHVSQPITLDEQTQKMKRHLLQDIRRSAYVYRVDCGGCNACEIEIFAAITPVFDAERFGIKVVSSPRHADILLFTGAVTRAMRMPALRAYESAPDHKICVSYGACGVGGGIFHDLYSVWGGSDTIVPIDVWIPGCPPTPAATIHGFAVALGLLQQKIHAVDYRDPTGVTMQPLWPQIPPSQRIAIEREARRLAGYRQGREICDRLLRHLSDDPTGNRVNTWLRDADDPRLNSIVQQLFRVLRGLHDEGGS | soluble
MGHHHHHHGGHMSLTISLAKGQKVDLTKTNPGLSKVVVGLGWDTNKYDGGHDFDLDSSVFLLDAAGKCASPNDFIFYNQLEGGNGSVVHSGDNLTGAGEGDDENVKVNLSAVPANIDKISFVITIHDAEARSQNFGQVSNAFVRIVNEETNEELIRYDLAEDFSIETAIIAGELYRHNGEWKFSAIGSGYQGGLARIATDYGLQVGEGGS | soluble
MGHHHHHHGGHMSLTSALPRPAPSPYARRKTALVIGAGFGGLALGIRLQSLGFDTTILERLDGPGGRAYQKRTPDGYVFDMGPTVLTVPHFIEELFALERDRAGLDAPDYPPEVLSGERVKEGVSGGPHTSRYVTLVPILPFYRIVFHDGTYFDYDGDPESTRRQIAELAPGDLAGYERFHADAEAIFRRGFLELGYTHFGDVPTMLRVVPDLLKLDAVRTLFSFTSKYFQSDKLRQVFSFETLLVGGNPLSVPAIYAMIHFVEKTWGIHYAMGGTGALVRGLVQKFEELGGAIRYGAGVDEVLVDGNLPGKRTARGVRLESGEELRADLVASNGDWANTYLKRVRPSARLVNSDLRVKAASESMSLLVVYFGFRGGDDLPLKHHNILLGPRYEALLSEIFGTKRLGEDFSQYLHVPTLTDPALAPAGHHAAYTLVPVPHNGSGIDWDVEGPKLAEAALADIERRGLIPGLRERLTHFEFITPDYFAGTLDSYLGNAFGPEPRLVQSAFFRPHNRSEDLHNFYLVGAGAQPGAGTPSVMMSAKMTARLIAEDFGIHADIREGGS | soluble
MGHHHHHHGSTTQRNAQIAMGRKKFNMDPKKGIQFLIENDLLQSSPEDVAQFLYKGEGLNKTVIGDYLGERDDFNIKVLQAFVELHEFADLNLVQALRQFLWSFRLPGEAQKIDRMMEAFASRYCLCNPGVFQSTDTCYVLSFAIIMLNTSLHNHNVRDKPTAERFITMNRGINEGGDLPEELLRNLYESIKNEPFKIPEDDGNDLTHTFFNPDREGWLLKLGGRVKTWKRRWFILTDNCLYYFEYTTDKEPRGIIPLENLSIREVEDPRKPNCFELYNPSHKGQVIKACKTEADGRVVEGNHVVYRISAPSPEEKEEWMKSIKASISRDPFYDMLATRKRRIANKK | soluble
MGHHHHHHSAISVWRAVDYVRMPWKNGGGSTEEITRDAGTGLEGFGWRLSIADIGESGGFSSFAGYQRVITVIQGAGMVLTVDGEEQRGLLPLQPFAFRGDSQVSCRLITGPIRDFNLIYSPERYHARLQWVDGVQRFFSTAQTVLVFSVADEVKVLGEKLGHHDCLQVDGNAGLLDISVTGRCCLIELTQRG | soluble
MGHHHHHHSHATGNVCIEEIDVDGKFIRLKNTSEQDQPMGGWEMIRKIGDTSVSYKYTSRYVLKAGQTVTIWAANAGVTASPPTDLIWKNQNSWGTGEDVKVILKNSQGEEVAQRSTVFKT | not soluble
MGHHHHHHSHGDAAPEALEFEYDLAEPPEKVWRALTVPELLAAWMMPNDIRPEIGNRFAFAGTEAAIECEILDAEPERLLRYSWRQQPGDAARQDPLDSVVTFTLARTVSGGTHLRIVHDGFGGKAMPAVAMASG | not soluble
MGHHHHHHSHGLPLWVSERILQQINQLTHYEPVIGIMGKTGAGKSSLCNALFAGEVSPVSDVAACTRDPLRFRLQIGEHFMTIVDLPGVGESGVRDTEYAALYREQLPRLDLILWLIKADDRALATDEHFYRQVIGEAYRHKMLFVISQS | not soluble
MGHHHHHHSHMAAEPVEDNCINFVAMKFIDNTLYFIAEDDENLESDYFGKLESKLSVIRNLNNQVLFIDQGNRPLFEDMTDSDCRDNAPRTIFIISMYKDSQPRGMAVTISVKCEKISTLSCENKIISFKEVNPPDNIKDTKSDIIFFQRSVPGHDNKMQFESSSYEGYFLTCEKERDLFKLILKKEDELGDRSIMFTVQNED | soluble
MGHHHHHHSHMAGGGAGDPGLGAAAAPAPETREHLFKVLVIGELGVGKTSIIKRYVHQLFSQHYRATIGVDFALKVLNWDSRTLVRLQLWDIAGQERFGNMTRVYYKEAVGAFVVFDISRSSTFEAVLKWKSDLDSKVHLPNGSPIPAVLLANKCDQNKDSSQSPSQVDQFCKEHGFAGWFETSAKDNINIEEAARFLVEKILVNHQSFPNEENDVDKIKLDQETLRAENKSQCC | soluble
MGHHHHHHSHMANSAGSMANSAGSMAKTIKDIKAMVEQAAIQSIHKSSSNVKQIMVKTGQEHIVEDVYGAYDPLLYERTGQVKDAFITTNESNGVSLDNIREDDGKDIATVIETGQGYTYPDSYGYGYGNPRPFMKNTSETLRDGRLTAALKKDLKADGIKTD | not soluble
MGHHHHHHSHMANSAGSMANSAGSMFDGISLTEHQRQQMRDLMQQARHEQPPVNVSELETMHRLVTAENFDENAVRAQAEKMANEQIARQVEMAKVRNQMYRLLTPEQQAVLNEKHQQRMEQLRDVTQWQKSSSLKLLSSSNSRSQ | not soluble
MGHHHHHHSHMANSAGSMANSAGSMFKLYSLAREFARDLLFEINGDVVTLSIKGVLLANTSSTSSNFSIFEVSENEFILAIQTSGYVVYLGIEAEEEIEEEVYPSLVRIIISEVMPIINNLVQVAKELSYKGADILLDDNMSSSLREAMYNLLLKHKKGKSPYEQVEVA | not soluble
